Experiment [1] has as its target T1, heat-shock protein 90β (HSP90β), endogenous, in conditioned medium of SCp2 cells (mouse, UniProt P11499 2-724).
T1 construct: also called HSP90b; extracellular HSP90β
As to the kind of experiment: reverse co-IP of HSP90β protein complexes from CM of control SCp2 cells, Western blot. The procedure:
For co-IP of HSP90β protein complexes, CM was incubated with 10 μg of control rabbit IgG or anti-HSP90β antibody for 16 h at 4° C. Precipitation was performed with protein G sepharose beads (17-0618-01, GE Healthcare) for 4 h at 4° C. The beads were then washed three times with 0.05% Tween/PBS, and the immune complexes were directly eluted with electrophoresis sample buffer and analyzed by Western blotting.

The target in experiment [2] is T2, Itgb1 (endogenous mouse integrin-beta1 of EpH4 mammary epithelial cells) (mouse, UniProt P09055 21-798).
T2 construct: Endogenous protein in EpH4 cell lysate; also called integrin-β1
T2 sequence (P09055 21-798 limits assumed): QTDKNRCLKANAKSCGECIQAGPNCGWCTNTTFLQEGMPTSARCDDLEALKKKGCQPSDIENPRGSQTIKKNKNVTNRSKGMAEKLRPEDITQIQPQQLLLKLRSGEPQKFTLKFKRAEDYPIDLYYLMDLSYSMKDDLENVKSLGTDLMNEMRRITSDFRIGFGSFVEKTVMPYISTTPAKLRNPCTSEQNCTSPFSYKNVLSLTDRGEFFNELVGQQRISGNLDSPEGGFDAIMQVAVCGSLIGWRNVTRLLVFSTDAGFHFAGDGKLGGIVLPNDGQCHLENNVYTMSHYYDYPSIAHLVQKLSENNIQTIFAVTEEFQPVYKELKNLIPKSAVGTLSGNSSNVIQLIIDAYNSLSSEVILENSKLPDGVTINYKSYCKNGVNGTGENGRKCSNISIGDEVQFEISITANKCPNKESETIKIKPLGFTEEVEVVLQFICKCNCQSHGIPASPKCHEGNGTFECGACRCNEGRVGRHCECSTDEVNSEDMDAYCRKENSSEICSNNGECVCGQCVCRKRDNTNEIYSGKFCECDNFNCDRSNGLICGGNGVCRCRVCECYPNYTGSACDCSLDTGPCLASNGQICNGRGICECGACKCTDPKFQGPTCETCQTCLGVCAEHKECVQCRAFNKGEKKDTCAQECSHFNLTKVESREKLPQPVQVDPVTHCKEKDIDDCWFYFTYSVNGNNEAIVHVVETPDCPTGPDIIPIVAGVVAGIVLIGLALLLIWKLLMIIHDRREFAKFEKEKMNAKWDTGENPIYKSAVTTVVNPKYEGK
Briefly: anti-FLAG M2 bead IP from EpH4 lysate, Western blot for Itgb1. The source says: FIG. 14. […] The heat map indicator is presented to show the intensity of the FRET signal. (iv) Quantification of FRET signals. ˜200 FRET signals were quantified on each condition. Data are mean+/−S.E., (****) indicates p<0.001. […] Immuno-complexes are used for IP-WB analysis.

Here are results for 3 molecules from patent publication US20150079071A1 (University of California, published 2015).

T1 sequence (P11499 2-724 limits assumed): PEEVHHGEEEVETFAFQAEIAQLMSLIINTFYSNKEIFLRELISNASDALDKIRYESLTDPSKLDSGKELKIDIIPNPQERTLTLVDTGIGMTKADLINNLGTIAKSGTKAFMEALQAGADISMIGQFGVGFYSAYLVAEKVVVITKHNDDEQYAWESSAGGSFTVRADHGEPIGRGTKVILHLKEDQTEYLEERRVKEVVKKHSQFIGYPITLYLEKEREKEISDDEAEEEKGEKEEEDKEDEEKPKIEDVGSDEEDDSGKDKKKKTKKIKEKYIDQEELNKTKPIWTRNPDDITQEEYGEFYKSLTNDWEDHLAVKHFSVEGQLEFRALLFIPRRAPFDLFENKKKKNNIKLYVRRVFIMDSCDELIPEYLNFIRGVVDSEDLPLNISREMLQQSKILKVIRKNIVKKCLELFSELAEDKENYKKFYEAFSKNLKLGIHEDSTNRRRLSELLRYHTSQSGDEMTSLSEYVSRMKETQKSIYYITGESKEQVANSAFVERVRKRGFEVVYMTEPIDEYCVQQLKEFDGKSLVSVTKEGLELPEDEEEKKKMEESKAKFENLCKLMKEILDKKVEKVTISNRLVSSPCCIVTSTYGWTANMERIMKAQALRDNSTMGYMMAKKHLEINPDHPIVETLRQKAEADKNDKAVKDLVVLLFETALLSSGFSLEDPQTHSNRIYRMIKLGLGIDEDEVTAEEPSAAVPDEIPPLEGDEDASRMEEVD

B1: annexin A2 (ANXA2), endogenous, in conditioned medium of SCp2 cells (other, mouse, UniProt P07356 2-339, looked up)
chain: STVHEILCKLSLEGDHSTPPSAYGSVKPYTNFDAERDALNIETAVKTKGVDEVTIVNILTNRSNVQRQDIAFAYQRRTKKELPSALKSALSGHLETVILGLLKTPAQYDASELKASMKGLGTDEDSLIEIICSRTNQELQEINRVYKEMYKTDLEKDIISDTSGDFRKLMVALAKGRRAEDGSVIDYELIDQDARELYDAGVKRKGTDVPKWISIMTERSVCHLQKVFERYKSYSPYDMLESIKKEVKGDLENAFLNLVQCIQNKPLYFADRLYDSMKGKGTRDKVLIRIMVSRSEVDMLKIRSEFKRKYGKSLYYYIQQDTKGDYQKALLYLCGGDD
For B1, the binding result in experiment [1] was “no binding”.

B2: myristoylated alanine-rich C-kinase substrate (MARCKS), endogenous, in conditioned medium of SCp2 cells (other, mouse, UniProt P26645 2-309, looked up)
chain: GAQFSKTAAKGEATAERPGEAAVASSPSKANGQENGHVKVNGDASPAAAEPGAKEELQANGSAPAADKEEPASGSAATPAAAEKDEAAAATEPGAGAADKEAAEAEPAEPSSPAAEAEGASASSTSSPKAEDGAAPSPSSETPKKKKKRFSFKKSFKLSGFSFKKSKKESGEGAEAEGATAEGAKDEAAAAAGGEGAAAPGEQAGGAGAEGAAGGEPREAEAAEPEQPEQPEQPAAEEPQAEEQSEAAGEKAEEPAPGATAGDASSAAGPEQEAPAATDEAAASAAPAASPEPQPECSPEAPPAPTAE
On to B2, for which the binding result in experiment [1] is recorded as “no binding”.

B3: MMP14F-dCAT (FLAG tagged human MMP14, catalytic domain deleted mutant, deletion of Tyr112-Pro312) (enzyme)
chain: not shown
notes: also called MMP14dCAT; not shown: FLAG tag
For B3, the binding result in experiment [2] was “no binding”.
